B1: JD (designed binder)
chain: SGSSDEEYARMSAELAEEAAKEALEQAKREGDEDARRVAEELEKQAEEARRKKDFDLANLVLMAAIILLLALIILELAKKAGNEQMEASGLSLLATAALLAAAGGENSEDARKALEAALRLAERATEVLEKIAKKGETALEKAIAAGTLVMLIQIIIQIAELLSKLGDTEEAKKVLDIAIELIKRVTEILERIAKKADTDILAQAAAGHLIYLIQLLMQISILLRRLGNIDEAFKVLEEARELAERVRELLERIAKNSDK
notes: Designed homodimer subunit, after TEV cleavage
B2: SP2: de novo designed chlorophyll special pair protein, C2 homodimer (protein)
chain: SGSGSSDEEFKFLATEAKMLITAAERLAGTDPELQEMVALIKKELEQAERTFRNGDKSEAQRQLEFVLTAARAVMNVAAAANAAGTDPELIEMVLRILKQLKEAIRTFQNGDQEEAETQLRFVLRAAIAVAVVAAALVLAGTDPELQEMVKQILEELKQAIETFARGDKEKALTQLLFVAWAAHAVAMIAAAANLAGTDPRLQQQVKEILEKLKEAIETFQKGDEEQAFRQLAEVLAEAALVALRAALTN
modifications: homodimer; VARIANT 1..6 optionally absent; VARIANT 33 optionally absent; VARIANT 89..100 optionally absent; VARIANT 111..115 optionally absent; VARIANT 151..169 optionally absent; VARIANT 197..199 optionally absent
notes: de novo designed chlorophyll special pair protein, C2 homodimer
B3: SP1: de novo designed chlorophyll special pair protein, C2 homodimer (protein)
chain: GGDSRELIARYQILLAELAAIRADIAAERTGDPYVRKLARELKRLAQEAAEEVKRDPSSSDVNMALLLILLMIELAVRALEAAERTGDPEVRELAAELVWLAVEAAEEVQRNPSSSDVWLALHLIMLAIWAAVAALEAAERTGDPEVRELARELVRLAVEAAEEVQRNPSSKEVYMALLLILIAILEAVLSLLRAERSGDPEKREKARERVREAVERAEEVQR
modifications: homodimer; VARIANT 1..2 optionally absent
notes: as for B2
B4: SP3: de novo designed chlorophyll special pair protein, C2 homodimer (protein)
chain: SGSSEELARESAEAAWRLAQAGTRLMLAWIRGDLKEIAEALIELARAVQELARVAKEYGNDELAKTAALLAAHVAMLAILVLIRAIKEGDDEVRELAKTAIKLASTAAKIVLDALPTAEEVRQITLLAKLAEEAADKKNEDSALAVGIAAAAVLLALLALEAAQKAGIEEAEKGARLLLKLAMDAARKKNPEEALAVFNAALDVSIALKLLQSAKRAGSEETRKLAEEMLRQALERARK
modifications: homodimer; VARIANT 1..4 optionally absent
notes: as for B2
B5: JE (designed binder)
chain: SGSGSSDELAALFLIISAKSQAWQAQSAAERTGDPRVRELARELKRLAQEAAEEVKRDPSSSEVNKNLQLISMAIALAVLALQLARKAGDEEARDIAREAVEVAVRAAQLILEGRDEQRAQTLFLIAHALLMAVMAARLGNSEVAELAVKVLRLAKELEKLLPSEIALFVVLMIALAALSAAMAASGGQEDYARDALRRLEEAIREAEENRSKESLEKVIEEAIEAMLQANRAQTGG
notes: as for B1

How the values were obtained:
[1] = biological target: the molecule itself; assay: size-exclusion chromatography, self-association (homodimer)
Method: FIG. 7. Size exclusion chromatography (SEC) traces of purified SP apo-proteins. Proteins were injected as 0.5 mL aliquots onto a Superdex™ 200 Increase 10/300 GL column (Cytiva Life Sciences). The narrow, isolated peaks indicate that the samples contain monodisperse protein. Running buffer was 150 mM NaCl, 10 mM Tris at pH 8. Proteins were purified by Ni-NTA and one round of SEC prior to collecting the data shown.
Proteins were purified by Ni-NTA and size-exclusion chromatography (SEC) (FIG. 7). […] A slightly lower predicted radius of gyration (Rg) value compared to experimental SAXS data is likely due to a dense hydration shell around the highly charged SP proteins (Svergun et al. 1998; Kim et al. 2016). The far ultraviolet (UV) circular dichroism (CD) spectra of three SP proteins that expressed in high yield (≥140 mg/L) show the proteins are highly α-helical with and without the synthetic Chl a derivative, Zn pheophorbide a methyl ester (ZnPPaM). Thermal denaturation curves monitored by the CD signal at 222 nm indicate that all three proteins are highly thermostable in the apo- and holo-states (FIG. 2).

[2] = ZnPPaM binding titration monitored by UV/vis absorbance; conditions: absorption titration
Method: FIG. 9. SP2-ZnPPaM binding titration monitored by UV/vis absorbance. (a) UV/vis titration of ZnPPaM into a solution of 20 μM SP2 dimer ([…] of SP2 monomer) in 150 mM NaCl, and 10 mM Tris at pH 8. Samples were prepared separately with 0.25 to 4 equivalents (eq.) of ZnPPaM per SP2 protein dimer (2.0 eq. ZnPPaM would be a stoichiometric amount). The y-axis is the molar extinction coefficient, &, or OD divided by ZnPPaM concentration. ZnPPaM was added to protein samples from a DMSO stock solution. Samples were incubated overnight for 20 hours at 4° C. before measurement at room temperature. (b) The same data as in panel (a) zoomed in on the Qy region. Arrows indicate the direction & changes as a function of increasing ZnPPaM concentration. (c) Fitted spectra and (d) species concentration vs. molar ratio of ligand to protein from fitting of the absorbance spectra in panels (a) and (b). During fitting, only the P+L→PL and PL+L→PL2 reactions were considered, and ZnPPaM aggregation was disregarded. (P represents SP2 dimer protein and L represents ZnPPaM ligand). Curve fitting gives dissociation constants (KDs) of 110 nM and 2.0 μM for KD1 and KD2, respectively. Fittings were performed with an algorithm that combines singular value decomposition and least squares regression, as implemented in ReactLab™ Equilibria. (e) Full spectra and (f) the Qy region of a second titration with SP2 dimer protein concentration held at 2.0 μM. At 2.0 μM protein, the intensities of the spectral features at 669 and 692 nm depend upon the molar ratio of protein to ZnPPaM in a manner similar to the 20 μM protein titration shown in panels (a) and (b).
(§1) At longer wavelengths in the UV/visible/near-infrared (UV/vis/NIR), CD spectra can serve as a convenient probe of excitonic interactions between Chls. […] When Chl dimers are arranged in chiral protein environments, however, excitonic interactions can produce delocalized transitions with chiral character, yielding CD signals that are stronger and conservative (i.e., composed of a bisignate doublet that integrates to zero). […] Curve fitting of the CD titrations yields SP2-ZnPPaM dissociation constants (KDs) of 300 nM for KD1 and 2.5 μM for KD2, and SP3-ZnPPaM KDs of 800 nM for KD1 and 1.0 μM for KD2 (data not shown). Due to the lower CD signal of the SP1-ZnPPaM complex, we instead used absorbance and fluorescence to measure the SP1-ZnPPaM interaction. Absorption titrations yielded curve fits with KD1 and KD2 values of 290 nM and 430 nM for SP1, 110 nM and 2.0 μM for SP2, and 350 nM and 940 nM for SP3, respectively (FIG. 9).
Protein-chlorophyll sample preparation: Zn pheophorbide a methyl ester (ZnPPaM) was purchased from Frontier Scientific, Inc. ZnPPaM stock solutions were prepared in dimethyl sulfoxide (DMSO) or methanol to concentrations between 200 μM and 1 mM. ZnPPaM concentrations were determined using mass measurements and by using the known absorptivity of Zn pheophytin a, which has a similar absorbance spectrum and an extinction coefficient €659 nm of 77,300 M^−1 cm^−1 in 80% acetone/20% deionized water (Jones et al. 1976). Ultraviolet/visible (UV/vis) absorbance spectra were collected using a V-750 spectrophotometer with a 1 nm bandwidth and 400 nm/min scanning speed. Protein-ZnPPaM complexes were prepared by slowly adding freshly-prepared ZnPPaM stock solution to protein solution in aqueous buffer at room temperature and incubating samples for several hours. Unbound ZnPPaM was removed by centrifugation to pellet precipitated ZnPPaM, sterile filtration using a 0.22 μm syringe filter, and/or running a PD-10 desalting column purification (Sephadex™ G-25 M resin, Cytiva Life Sciences).

[3] = ZnPPaM fluorescence titration, 1:1 binding model; conditions: 1:1 binding model of protein monomer to ZnPPaM, approximates average of KD1 and KD2, read-out: KD estimate
From the text: as §1

[4] = ZnPPaM binding titration monitored by CD in the Qy region; conditions: curve fitting
From the text: as §1
Circular Dichroism (CD) spectroscopy: CD spectra were collected using a J-1500 spectrophotometer. For protein secondary structure assays, spectra were measured on samples of 0.2-0.4 mg/mL protein in 1 mm quartz cuvettes from 260 to 190 nm with a 1 nm bandwidth, 1 nm data interval, data integration time (DIT) of 1 second, and scanning speed of 50 nm/min. Thermal melts were monitored at 222 nm from 2 to 98° C. with a 2 nm bandwidth and 8 second DIT. UV/vis/near-infrared (NIR) CD transitions of protein-bound Chls were examined in the 800-300 nm region in 1 cm quartz cuvettes as averages of 10 scans using a 3 nm bandwidth, 1 nm data interval, DIT of 4 seconds, and scanning speed of 50 nm/min unless otherwise noted. UV/vis/NIR CD spectra shown in FIG. 2 were collected after sterile filtering with 0.22 μm filter and PD-10 desalting column purification (Sephadex™ G-25 M resin, Cytiva Life Sciences). Each spectrum represents the average of two independent sample preparations. Samples contained 8-15 μM protein (monomer concentration) with equimolar ZnPPaM, 150 mM NaCl, and 10 mM Tris buffer at pH 8. ZnPPaM dry powder was dissolved in methanol stock solutions immediately before adding to protein solutions. Samples were allowed to incubate for 8-16 hours at room temperature prior to measuring spectra.

[5] = P+L→PL, 150 mM NaCl, 10 mM Tris pH 8, read-out: dissociation constant KD1
[6] = first ZnPPaM binding (data not shown), read-out: dissociation constant KD1
[7] = second ZnPPaM binding (data not shown), read-out: dissociation constant KD2
[8] = PL+L→PL2, read-out: dissociation constant KD2

Row | Molecule | binding result [1] | Kd [2, 5] | Kd ([2]; PL+L→PL2, 150 mM NaCl, 10 mM Tris pH 8, read-out: dissociation constant KD2) | Kd [3] | Kd [4, 6] | Kd [4, 7] | Kd [2, 8]
1 | B1 | binds | – | – | – | – | – | –
2 | B2 | – | 110 nM | 2000 nM | 480 nM | 300 nM | 2500 nM | –
3 | B3 | – | 290 nM | – | 660 nM | – | – | 430 nM
4 | B4 | – | 350 nM | – | 120 nM | 800 nM | 1000 nM | 940 nM
5 | B5 | binds | – | – | – | – | – | –
